Assay results reported in patent US20050164936A1.

How the values were obtained:
Assay in all cases: cell-based or functional assay
[1] = target: T1, CC chemokine receptor CCR1 (UniProt P32246)
T1 sequence (looked up): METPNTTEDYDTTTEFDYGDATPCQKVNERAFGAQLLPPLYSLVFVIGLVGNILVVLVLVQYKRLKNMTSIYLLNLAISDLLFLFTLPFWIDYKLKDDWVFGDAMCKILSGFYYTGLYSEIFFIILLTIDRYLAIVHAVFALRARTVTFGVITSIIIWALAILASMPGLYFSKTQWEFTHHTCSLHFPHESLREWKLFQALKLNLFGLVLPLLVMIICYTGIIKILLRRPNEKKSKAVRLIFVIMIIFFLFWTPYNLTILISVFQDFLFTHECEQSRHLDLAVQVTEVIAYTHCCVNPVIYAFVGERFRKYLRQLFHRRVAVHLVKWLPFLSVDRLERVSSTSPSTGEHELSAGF

[2] = target: T2, CC chemokine receptor CCR3 (UniProt P51677)
T2 sequence (looked up): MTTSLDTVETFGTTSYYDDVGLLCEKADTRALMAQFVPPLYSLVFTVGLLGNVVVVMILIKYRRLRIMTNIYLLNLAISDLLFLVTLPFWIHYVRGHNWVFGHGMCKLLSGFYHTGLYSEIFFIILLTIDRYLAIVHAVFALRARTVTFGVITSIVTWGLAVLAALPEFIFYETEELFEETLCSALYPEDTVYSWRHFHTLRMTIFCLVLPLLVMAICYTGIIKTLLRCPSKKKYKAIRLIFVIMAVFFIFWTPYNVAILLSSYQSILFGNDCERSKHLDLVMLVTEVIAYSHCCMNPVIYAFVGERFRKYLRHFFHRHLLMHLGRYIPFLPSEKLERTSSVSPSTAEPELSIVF

[3] = target: CC chemokine receptor CCR5 (human) (UniProt P51681)
RANTES(1-68) (human) = RANTES(1-68) (human) (UniProt P13501)
Sequence of RANTES(1-68) (human) (P13501 24-91 limits assumed): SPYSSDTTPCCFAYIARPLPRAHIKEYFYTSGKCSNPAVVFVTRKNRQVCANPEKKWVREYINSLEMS

Sequence of RANTES(1-68) (P13501 24-91 limits assumed): as above
Sequence of CC chemokine receptor CCR5 (human) (P51681 whole entry): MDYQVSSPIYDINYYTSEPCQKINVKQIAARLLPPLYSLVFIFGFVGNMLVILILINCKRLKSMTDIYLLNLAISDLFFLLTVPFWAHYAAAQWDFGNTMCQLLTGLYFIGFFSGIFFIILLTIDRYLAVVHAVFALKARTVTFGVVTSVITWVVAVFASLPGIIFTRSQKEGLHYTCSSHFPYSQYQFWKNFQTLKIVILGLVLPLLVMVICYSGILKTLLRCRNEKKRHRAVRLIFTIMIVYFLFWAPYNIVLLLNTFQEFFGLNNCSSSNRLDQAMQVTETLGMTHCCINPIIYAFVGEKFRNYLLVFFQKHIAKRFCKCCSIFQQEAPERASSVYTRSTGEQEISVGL
Sequence of RANTES(3-68) (P13501 26-91 limits assumed): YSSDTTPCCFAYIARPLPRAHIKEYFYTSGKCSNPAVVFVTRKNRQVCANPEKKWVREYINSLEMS
Sequence of soluble CD26 (sCD26) (P27487 39-766 limits assumed): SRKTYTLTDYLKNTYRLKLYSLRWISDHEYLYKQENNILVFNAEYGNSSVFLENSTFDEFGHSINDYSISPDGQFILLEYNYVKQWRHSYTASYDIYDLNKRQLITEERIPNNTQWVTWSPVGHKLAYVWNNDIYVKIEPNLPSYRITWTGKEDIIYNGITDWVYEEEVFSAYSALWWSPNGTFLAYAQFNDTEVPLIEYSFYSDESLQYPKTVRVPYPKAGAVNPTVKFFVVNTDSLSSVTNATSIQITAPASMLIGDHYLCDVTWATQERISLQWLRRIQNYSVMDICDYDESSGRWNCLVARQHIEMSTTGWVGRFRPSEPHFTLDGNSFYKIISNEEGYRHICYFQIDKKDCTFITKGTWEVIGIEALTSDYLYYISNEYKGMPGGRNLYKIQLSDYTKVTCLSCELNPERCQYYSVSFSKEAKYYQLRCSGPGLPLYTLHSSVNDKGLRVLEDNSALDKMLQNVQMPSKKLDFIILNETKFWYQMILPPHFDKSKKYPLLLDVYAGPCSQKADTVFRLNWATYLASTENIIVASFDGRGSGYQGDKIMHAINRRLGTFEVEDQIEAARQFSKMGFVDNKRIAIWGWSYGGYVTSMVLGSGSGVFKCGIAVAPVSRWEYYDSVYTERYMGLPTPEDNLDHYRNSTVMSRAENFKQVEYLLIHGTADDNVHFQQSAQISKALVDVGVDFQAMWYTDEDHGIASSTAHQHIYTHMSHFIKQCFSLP

Substance | Increase in [Ca2+]i (nM) at 10 ng/ml, HOS cells transfected with CD4 and CCR1 [1] [nM] | Increase in [Ca2+]i (nM) at 30 ng/ml, HOS cells transfected with CD4 and CCR1 [1] [nM] | Increase in [Ca2+]i (nM) at 100 ng/ml, HOS cells transfected with CD4 and CCR1 [1] [nM] | Increase in [Ca2+]i (nM) at 300 ng/ml, HOS cells transfected with CD4 and CCR1 [1] [nM] | concentration sufficient to increase [Ca2+]i in HOS cells transfected with CCR3 [2] [ng/mL] | IC50, inhibition of HIV-1 BaL replication in HOS.CD4.CCR5 cells (p24 Ag ELISA) [3] [nM] | IC50, inhibition of HIV-1 BaL replication in U87.CD4.CCR5 cells (p24 Ag ELISA) [3] [nM] | IC90, inhibition of HIV-1 BaL replication in HOS.CD4.CCR5 cells (p24 Ag ELISA) [3] [nM] | IC90, inhibition of HIV-1 BaL replication in U87.CD4.CCR5 cells (p24 Ag ELISA) [3] [nM] | Increase in [Ca2+]i (nM) at 10 ng/ml, HOS cells transfected with CD4 and CCR5 [3] [nM] | Increase in [Ca2+]i (nM) at 30 ng/ml, HOS cells transfected with CD4 and CCR5 [3] [nM] | Increase in [Ca2+]i (nM) at 100 ng/ml, HOS cells transfected with CD4 and CCR5 [3] [nM] | Increase in [Ca2+]i (nM) at 300 ng/ml, HOS cells transfected with CD4 and CCR5 [3] [nM] | inhibition of the [Ca2+]i rise by a subsequent challenge with intact RANTES (100 ng/ml) after pre-incubation of CCR5-transfected cells with a 3- to 10-fold excess [3] [%] | concentration needed to increase [Ca2+]i in HOS cells transfected with CCR3 [2] [ng/mL] | IC50 of RANTES(1-68) against HIV-1 BaL in HOS.CD4.CCR5 cells when sCD26 at 50 U/l is added (p24 Ag ELISA) (RANTES(1-68) (human)) [nM]
RANTES(1-68) (from UniProt P13501 24-91) (ligand) | < 16 | 25 | 100 | 133 | 100 | > 130 | 21 | > 130 | > 130 | < 15 | 24 | 60 | 96 | 75 |  | 
RANTES(3-68) (from UniProt P13501 26-91) (ligand) |  | < 15 | < 15 | 19 |  | 5.5 | 0.65 | > 130 | 63 | < 15 | 56 | 76 | 119 | 75 | > 300 | 
soluble CD26 (sCD26) (from UniProt P27487 39-766) (enzyme) |  |  |  |  |  |  |  |  |  |  |  |  |  |  |  | 13
